Results as given in paper PMC4960888, “Gd-nanoparticles functionalization with specific peptides for ß-amyloid plaques targeting” (Journal of Nanobiotechnology, 2016).
Entries after “also recorded” stand apart in the source; their conditions may differ.

Legend:
[1] = Relaxivity measurements (60 MHz, 37 °C); assay type: physicochemical; settings: 60 MHz (1.4 T), Bruker minispec mq60, Gd^3+ concentration by ICP-OES
Method: Relaxivity measurements were performed on a Bruker® minispec mq60NMR analyzer (Brucker, USA) at 37 °C at 1.4 T (60 MHz). Samples were measured at a specific Gd^3+ concentration (mM), calculated from ICP-OES. The longitudinal relaxation time T1 and the transverse relaxation time T2 (s) were measured at 60 MHz and at 37 °C. Then the relaxivities ri (s^−1 mM^−1) were obtained according to the following formula: 1/Timeasured=1/Tiwater+riGd^3+ where i = 1 or 2.

amyloid fibrils = settings: cited from earlier work
Source text: Currently, magnetic resonance imaging (MRI) is the preferred neuroimaging examination for AD as it allows an accurate measurement of brain structures’ volume, although a decrease of this latter appears to be a nonspecific and late feature of cerebral vascular diseases’ progression. Thus, studies are under way to develop specific imaging markers for different types of dementia, including markers of senile plaques for very-high-field MRI and positron emission tomography (PET). A better characterization of the amyloid plaque presence and load in the brain can be also expected from i ...

[2] = tested on: Aβ amyloid plaques (APPswe/PS1A246E/TTR(−/−) transgenic mouse brain sections); assay: Immunohistochemistry on AD mouse brain sections with amyloid plaques; settings: 10 months old APPswe/PS1A246E/TTR(−/−) hippocampus, nanoparticles at 3 nM Cy5.5 (2 mM Gd^3+) with 3 mM ungrafted nanoparticles, or PIB 1 µM, 1h30 RT, fluorescence
[3] = tested on: Aβ amyloid plaques (APPswe/PS1A246E/TTR(−/−) transgenic mouse brain sections); settings: cited from earlier work
Method: The specificity of functionalized nanoparticles binding was verified, by incubating nanoparticles without grafted-peptides, AGuIX@PEG@Cy5.5, on brain section containing amyloid burden. […] Whereas, various other cyanine derivative d ...

fibrils = assay: Cy5.5 staining of fibrils in vitro (personal data); assay type: binding; settings: in vitro on fibrils (personal data)
V30M-TTR fibrils = assay: SPR binding to V30M-TTR fibrils; design: species or system human; settings: 800 R.U. V30M-TTR fibrils, 0.02–6.4 mM in peptide, R.U. 141 s after end of injection
Source text: N-(3-Dimethylaminopropyl)-N′-ethylcarbodiimide hydrochloride (EDC, >98.0 %), N-hydroxysuccinimide (NHS, >97.0 %), gadolinium chloride hexahydrate ([GdCl3·6H2O], 99 %), sodium hydroxide (NaOH, 99.99 %), hydrochloric acid (HCl, 36.5–38 %), sodium chloride (NaCl, >99.5 %), dimethyl sulfoxide (DMSO, >99.5 %), acetonitrile (CH3CN, >99.9 %), trifluoroacetic acid (TFA, >99 %), trinitrobenzene sulfonic acid (TNBS) 1 M in water, sodium dodecyl sulfate (SDS, >99 %), (3-aminopropyl)triethoxysilane (APTES, >98 %), tetraethyl orthosilicate (TEOS; >98 %) and Poly(ethylene glycol) bis(carboxymethyl) ether (PEG) with an average molecular weight Mn = 250 g mol^−1 were purchased from Aldrich Chemical (France) and used without further purification. Diethylene glycol (DEG, 99 %) was purchased from SDS Carlo Erba (France). Acetone (reagent grade) was purchased from Sodipro (France) and was used as received. […] Recombinant human V30M-TTR protein was obtained following cloning its gene in the plasmid pQE81L and its expression in Escherichia coli (M15). Briefly, bacterial cultures were performed in LB medium, 100 µg mL^−1 ampicillin and 25 µg mL^−1 kanamycin, at 37 °C, under constant orbital shaking. Protein production was pursued for 7 h after IPTG induction when the absorbance was 0.700 at 600 nm. The bacterial pellet of 50 mL of culture was resuspended in sodium phosphate 50 mM, pH 8, sodium chloride 300 mM, imidazole 10 mM, betamercaptoethanol 10 mM, supplemented with 500 µL of a protease inhibitor, phenylmethylsulfonyl fluoride (Sigma, #78830), at 1 mM final and a cocktail of protease inhibitor EDTA-free (Roche, #11873580001). The suspension was sonicated during a total time of 6 min with repeated cycles of 5/7 s off with an amplitude of 20 %, then centrifuged during 30 min at 100,000g, to pellet cellular debris. The supernatant was filtered on 0.2 µm cut off filters. The purification of the protein was performed on immobilized metal ion chromatography (Chelating Fast Flow, Amersham #17057501), and dialyzed against 20 mM·NH4HCO3 (membrane cutoff 1/10,000; 3500 MWCO Spectrapore). Finally, the protein was freeze-dried. The protein quality was checked by SDS PAGE gel 15 %. The Pittsburgh compound-B (PIB) derivative molecule was synthetized according to the procedure already described in the literature. Starting from the p-anisidine, the p-nitrobenzoyl amide was readily obtained and then the corresponding thioamide was prepared by reaction with Lawesson’s reagent. Finally, an oxidative cyclization was done to lead to the benzothiazole derivative, and the nitro function was reduced to give compound (Synthesis’ details in Additional file 1). […]

[4] = Dynamic light scattering, hydrodynamic diameter; assay type: physicochemical; settings: DLS, Zetasizer NanoS, 532 nm, 10 mM Gd^3+, 0.2 µm filtered; measurement repeated 8 times
Method: Hydrodynamic diameters (DH) of the Nps were determined with a Zetasizer NanoS (laser He–Ne 532 nm) from Malvern Instrument® (5 mW, with 173° NIBS detector and narrow band filter). Attenuator was optimized by the device and position was set to the center of the cell. To perform the measurement, 1 mL of nanoparticles suspensions at 10 mM Gd^3+ was poured in a 12 mm square polystyrene disposable cuvette after filtration on a 0.2 µm cut-off nylon filter. Each measurement was repeated 8 times.

SH-SY5Y = assay: MTT cell viability
Method: The innocuousness of the grafted Nps was assessed using a neuronal cell line SH-SY5Y. The cell viability was assessed using the 3-(4,5-dimethylthiazol-2yl)-2,5-diphenyltetrazolium bromide (MTT) assay^63. SH-SY5Y cells were cultured in DMEM/F12 medium supplemented with 10 % fetal bovine serum and 1 % penicillin -streptomycin /amphotericin B. For the assay, the cells were plated at a density of 50 000 cells/well in 200 µl of medium. […] Nps were added to the cells and incubated at 37 °C, 5 % CO2. One hour later, 10 μL of MTT solutions (12 mM) was added into each well, and the plates were incubated for another 2 h at 37°C, 5% CO2. The culture medium was removed, and the precipitated cells were lysed using DMSO. After 10 minutes, the purple crystals were dissolved completely; the cell viability was calculated from the absorbance signals measured by a plate reader (Tecan Infinite M200) at 540 nm. The absorbance of the wells containing medium-only, corresponding to the background, were subtracted from the value of each reading. Data are expressed in % of cell viability, each MTT analysis was carried out on triplicate samples.

Aβ(1–42) fibrils [5] = molecular target: T1, Aβ(1–42) fibrils (Homo sapiens, UniProt P05067); assay: Partition (spectrofluorometric) binding to Aβ(1–42) fibrils; settings: 20 µM fibrils, 2 µM nanoparticles, saturated with 3 mM AGuIX, 60 min; data not shown
T1 construct: Freeze-dried Aβ(1–42) peptide (Genecust) was dissolved in distilled water at pH 11.0; purchased Genecust (Luxembourg)
T1 sequence (P05067 672-713): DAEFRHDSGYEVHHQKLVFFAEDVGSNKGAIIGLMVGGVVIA

Aβ(1–42) fibrils [6] = molecular target: T1, Aβ(1–42) fibrils; assay: SPR binding to Aβ(1–42) fibrils
Method: The surface plasmon resonance assays were performed using a BIAcore® 2000 biosensor. The instrument was equipped with a CM3 sensor chip (GE Healthcare®, Uppsala, Sweden). The interaction studies took place on a gold chip functionalized with carboxymethylated dextran. The sensor surface itself form one wall of a flow cell, which is an integral part of the microfluidic system. All SPR experiments were performed at 25 °C. HEPES buffer (HBS-P, GE Healthcare®, 0.01 M HEPES, 0.15 M NaCl, 0.005 % surfactant p20) was used as running buffer.
For immobilization, amine coupling reagents were obtained from the GE Healthcare® kit containing 0.2 M EDC in water, 0.05 M NHS in water and ethanolamine-HCl pH 8.5. […] Aβ(1–42) and V30M-TTR fibrils were immobilized on the flow cell 2 and 4 respectively of a CM3 sensor chip with an amine coupling reaction. After the chip activation by EDC/NHS during 7 min, the fibrils were injected at: 10 µM in 10 mM sodium acetate pH 4 at a flow rate of 5 µL min^−1 during 20 min for Aβ(1–42) fibrils or at 0.36 µM in 10 mM sodium acetate pH 5.5 at a flow rate of 5 µL min^−1 during 100 min for V30M-TTR fibrils. […]
Biacore® experiments gathered data from 3 cycles for each studied analyte. […] Results of the interaction between the analytes and the Aβ(1–42) or V30M-TTR fibrils were represented on a sensorgram expressed as respectively FC2-1 or FC4-3 (RU-RUdextran) versus time. […]

For `CNC[C@H](O)[C@@H](O)[C@H](O)[C@H](O)CO.O=C([O-])CN1CCN(CC(=O)[O-])CCN(CC(=O)O)CCN(CC(=O)[O-])CC1.[Gd+3]` [DOTAREM®, reference compound], the “r1 (longitudinal relaxivity)” value [1] was 3.4 s⁻¹ mM⁻¹.
For `CNc1ccc(-c2nc3ccc(O)cc3s2)cc1` [Pittsburgh compound B, [^11C]2-(4′-methylaminophenyl)-6-hydroxybenzothiazole], the “binding to amyloid fibrils” value (amyloid fibrils) is listed as “binds with high affinity to any amyloid fibrils”.
For Cy5.5 [reference compound], the “binding/staining of amyloid plaques in AD mouse brain sections” value (from here on “binding/staining of amyloid plaques”) [2] is given as “non-binding of Cy5.5 dye to amyloid plaque; also recorded: background due to the Cy5.5 restricted to blood vessels”, the “staining by Cy5.5 on brain section of AD mouse model” value [3] is given as “does not stain fibrils” and the “staining of fibrils by Cy5.5 molecule” value (fibrils) is given as “does not stain fibrils”.
With KLVFF [AGuIX@PEG@KLVFF@Cy5.5] the “binding/staining of amyloid plaques” value [2] was “beta-amyloid plaques were visualized; also recorded: bind selectively amyloid plaque constituted by Aβ protein”, the “binding/staining of amyloid plaques” value ([2]; listed as KLVFF-grafted) was “recognized and bound the Aβ amyloid plaque localized in the mouse hippocampus” and the “interaction with V30M-TTR fibrils” value (V30M-TTR fibrils) was “no specific interaction”. For the same compound, the “interaction with V30M-TTR fibrils” value (V30M-TTR fibrils; listed as KLVFF-grafted) was “did not interact with V30M-TTR fibrils”.
For KLVFF [AGuIX@PEG@KLVFF], the hydrodynamic diameter [4] was 3.5 ± 0.9 nm and the “r1 (longitudinal relaxivity)” value [1] was 14.1 s⁻¹ mM⁻¹.
In the case of LPFFD [AGuIX@PEG@LPFFD], the hydrodynamic diameter [4] was 3.2 ± 0.8 nm, the “r1 (longitudinal relaxivity)” value [1] was 13.2 s⁻¹ mM⁻¹ and the “cells alive (Fig. S7)” value (SH-SY5Y; 1 h at 37 °C, 5 % CO2, up to 2 mM nanoparticles, MTT 2 h, 540 nm, triplicate) was “more than 80%”.
With “LPFFD [AGuIX@PEG@LPFFD@Cy5.5, AGuIX@PEG@LPFFD labeled with cyanine 5.5, 1 dye for 170 Np]” the “binding/staining of amyloid plaques” value [2] was “beta-amyloid plaques were visualized; also recorded: bind selectively amyloid plaque constituted by Aβ protein”, the “binding/staining of amyloid plaques” value ([2]; listed as LPFFD-grafted) was “recognized and bound the Aβ amyloid plaque localized in the mouse hippocampus” and the “Cy5.5 fluorescence associated with fibrils” value (Aβ(1–42) fibrils [5]) was “no fluorescence has been detected associated with fibrils”. The “interaction (R.U. remaining 141 s after end of injection)” value (Aβ(1–42) fibrils [6]; 2.5 mM in Gd^3+) was “interact with Aβ(1–42) fibrils”, the “interaction over nanoparticle concentration range” value (Aβ(1–42) fibrils [6]; 0.02–6.4 mM in peptide, R.U. 141 s after end of injection) was “displayed an interaction on Aβ(1–42) fibrils (blue curves) dependent on nanoparticle concentrations injected” and the cells alive (SH-SY5Y; 5 mM Gd^3+, MTT) was “more than 75%”. The cells alive (SH-SY5Y; 1 h incubation, 0.5 to 2 mM Gd^3+, MTT) was “more than 80%”, the “toxic effects on cells” value (SH-SY5Y; MTT, up to 5 mM Gd^3+) was “do not exhibit any toxic effects on cells” and the “interaction with V30M-TTR fibrils” value (V30M-TTR fibrils) was “no specific interaction”. The “interaction with V30M-TTR fibrils” value (V30M-TTR fibrils; listed as LPFFD-grafted) was “did not interact with V30M-TTR fibrils”.
